Source: the supplement of paper PMC9876800

Tested on: peptide library, one residue held at a place counted from the S/T acceptor
Test: relative phosphorylation of the sub-library (ratio to the mean residue at this position); higher = residue favoured
Conditions: human
In short: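 Spots on streptavidin membranes were phosphorimaged and quantified by densitometry to measure phosphorylation of biotinylated degenerate peptide sub-libraries by purified recombinant kinases, human or orthologue constructs. The reactions ran in 384-well plates for 90 min under kinase-specific conditions, with peptides at 50 μM and 50 μM ATP spiked with γ-32P-ATP. Relative sub-library phosphorylation is the ratio to the mean residue at that position.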

Sequence of OXSR1, construct: Full length (O95747 whole entry, looked up): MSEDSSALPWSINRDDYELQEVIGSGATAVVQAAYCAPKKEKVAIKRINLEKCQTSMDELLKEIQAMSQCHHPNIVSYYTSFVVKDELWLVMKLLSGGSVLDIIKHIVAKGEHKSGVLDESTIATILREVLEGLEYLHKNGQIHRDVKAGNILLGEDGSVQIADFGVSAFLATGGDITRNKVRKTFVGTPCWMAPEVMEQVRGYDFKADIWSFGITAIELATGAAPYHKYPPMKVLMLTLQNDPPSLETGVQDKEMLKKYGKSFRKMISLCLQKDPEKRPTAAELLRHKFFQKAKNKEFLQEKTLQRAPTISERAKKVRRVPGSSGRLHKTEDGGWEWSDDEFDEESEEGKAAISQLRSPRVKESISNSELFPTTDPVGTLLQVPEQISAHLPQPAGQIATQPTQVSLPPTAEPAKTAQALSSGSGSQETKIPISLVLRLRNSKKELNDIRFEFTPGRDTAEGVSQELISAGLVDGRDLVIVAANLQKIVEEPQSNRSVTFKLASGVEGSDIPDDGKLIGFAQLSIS
Sequence of AKT2, construct: Full length (P31751 whole entry, looked up): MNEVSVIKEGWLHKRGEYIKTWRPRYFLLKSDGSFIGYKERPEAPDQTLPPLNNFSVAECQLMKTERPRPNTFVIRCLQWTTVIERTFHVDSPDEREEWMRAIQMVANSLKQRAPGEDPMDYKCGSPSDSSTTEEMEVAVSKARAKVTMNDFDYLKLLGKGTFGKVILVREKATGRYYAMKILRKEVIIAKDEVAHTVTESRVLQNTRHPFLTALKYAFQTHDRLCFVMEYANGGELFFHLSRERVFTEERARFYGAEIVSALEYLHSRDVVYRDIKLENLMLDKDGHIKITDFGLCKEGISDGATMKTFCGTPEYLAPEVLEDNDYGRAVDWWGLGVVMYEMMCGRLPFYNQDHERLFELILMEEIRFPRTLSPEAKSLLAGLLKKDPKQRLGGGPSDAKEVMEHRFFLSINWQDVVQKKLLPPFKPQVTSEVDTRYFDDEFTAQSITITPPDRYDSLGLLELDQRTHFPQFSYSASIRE
Sequence of NUAK1, construct: Full length (O60285 whole entry, looked up): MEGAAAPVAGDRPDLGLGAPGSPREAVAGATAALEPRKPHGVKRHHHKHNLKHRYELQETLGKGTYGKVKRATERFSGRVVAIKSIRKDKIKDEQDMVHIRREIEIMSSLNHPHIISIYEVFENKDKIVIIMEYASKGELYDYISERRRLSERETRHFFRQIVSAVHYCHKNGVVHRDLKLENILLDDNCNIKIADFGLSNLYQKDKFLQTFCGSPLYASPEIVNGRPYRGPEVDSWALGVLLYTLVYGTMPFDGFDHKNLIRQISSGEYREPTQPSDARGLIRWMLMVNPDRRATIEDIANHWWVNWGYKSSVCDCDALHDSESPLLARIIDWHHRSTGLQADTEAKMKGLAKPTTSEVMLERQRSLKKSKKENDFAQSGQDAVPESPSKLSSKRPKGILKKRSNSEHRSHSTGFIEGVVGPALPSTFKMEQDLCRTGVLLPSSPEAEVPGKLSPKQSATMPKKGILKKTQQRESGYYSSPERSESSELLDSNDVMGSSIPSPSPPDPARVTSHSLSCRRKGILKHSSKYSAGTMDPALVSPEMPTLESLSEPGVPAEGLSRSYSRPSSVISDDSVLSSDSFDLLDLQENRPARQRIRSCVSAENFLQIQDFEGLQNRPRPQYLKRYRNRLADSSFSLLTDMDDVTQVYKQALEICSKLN

EIF2AK2, construct: aa252-end (from UniProt P19525)
relative phosphorylation
Conditions | at +1 | at +2 | at +3 | at +4 | at -1 | at -2 | at -3 | at -4 | at -5
A fixed | 0.837 | 0.775 | 0.867 | 0.96 | 0.739 | 1.04 | 0.961 | 1.13 | 1.13
D fixed | 0.526 | 0.705 | 0.665 | 0.818 | 0.726 | 0.939 | 1.13 | 1.05 | 0.979
E fixed | 0.509 | 0.688 | 0.599 | 0.844 | 0.64 | 0.912 | 1.18 | 0.954 | 0.945
F fixed | 0.695 | 0.616 | 1.02 | 0.701 | 0.681 | 0.989 | 0.774 | 1.06 | 0.853
G fixed | 1.12 | 1.55 | 1.46 | 1.23 | 0.724 | 0.999 | 1.51 | 1.13 | 1.21
H fixed | 0.762 | 1.2 | 1.16 | 1.24 | 1.21 | 1.14 | 0.95 | 1.02 | 1.07
I fixed | 1.01 | 0.648 | 0.9 | 1.04 | 1.16 | 0.793 | 0.89 | 0.805 | 0.995
K fixed | 1.93 | 1.5 | 1.76 | 1.36 | 1.93 | 1.03 | 1.11 | 1.15 | 1.15
L fixed | 1.01 | 0.541 | 0.896 | 0.73 | 0.915 | 1.32 | 0.779 | 0.815 | 0.767
M fixed | 1.25 | 0.643 | 0.779 | 0.935 | 1.03 | 1.01 | 0.961 | 0.868 | 0.884
N fixed | 1.04 | 1.78 | 0.876 | 0.972 | 1.18 | 1.2 | 0.99 | 0.937 | 1
P fixed | 0.4 | 0.644 | 0.966 | 0.815 | 0.648 | 0.963 | 0.969 | 0.954 | 0.93
Q fixed | 1.22 | 0.845 | 0.925 | 0.811 | 0.95 | 1.02 | 0.855 | 0.92 | 0.855
R fixed | 2.57 | 2.68 | 1.7 | 1.75 | 1.97 | 1.09 | 1.5 | 1.21 | 1.41
V fixed | 0.897 | 0.708 | 0.798 | 0.812 | 1.07 | 0.863 | 0.819 | 0.875 | 0.824
W fixed | 0.637 | 0.715 | 0.863 | 1.06 | 0.64 | 0.87 | 0.804 | 1.24 | 0.947
Y fixed | 0.585 | 0.757 | 0.768 | 0.927 | 0.771 | 0.818 | 0.821 | 0.878 | 1.05
pThr fixed | 0.58 | 0.605 | 0.729 | 0.854 | 0.677 | 0.853 | 1.04 | 0.992 | 0.947
pTyr fixed | 0.489 | 0.897 | 0.717 | 0.853 | 0.629 | 0.933 | 0.955 | 0.735 | 0.968

OXSR1, construct: Full length (from UniProt O95747)
relative phosphorylation
Conditions | at +1 | at +2 | at +3 | at +4 | at -1 | at -2 | at -3 | at -4 | at -5
A fixed | 0.587 | 0.646 | 1.07 | 1 | 0.862 | 0.695 | 0.845 | 1.05 | 1.23
D fixed | 0.346 | 0.325 | 0.493 | 0.683 | 1.83 | 1.34 | 1.26 | 1.9 | 1.83
E fixed | 0.382 | 0.249 | 0.487 | 0.666 | 1.19 | 1.31 | 1.27 | 1.8 | 1.52
F fixed | 1.08 | 0.495 | 0.574 | 0.702 | 0.643 | 0.693 | 0.48 | 0.722 | 0.76
G fixed | 0.509 | 1.09 | 1.42 | 1.37 | 0.801 | 1.31 | 1.17 | 1.41 | 1.4
H fixed | 1.21 | 3.55 | 1.17 | 1.07 | 1.67 | 1.43 | 1.57 | 1 | 0.976
I fixed | 1.69 | 0.541 | 0.443 | 0.596 | 0.447 | 0.333 | 0.36 | 0.329 | 0.386
K fixed | 0.838 | 1.25 | 2.23 | 1.93 | 0.975 | 0.584 | 0.783 | 0.964 | 1.06
L fixed | 1.14 | 0.459 | 0.531 | 0.634 | 0.931 | 0.432 | 0.384 | 0.416 | 0.519
M fixed | 1.36 | 0.76 | 0.613 | 0.78 | 0.968 | 0.531 | 0.51 | 0.633 | 0.581
N fixed | 0.689 | 1.18 | 1.1 | 0.947 | 1.64 | 1.69 | 2.04 | 1.14 | 0.96
P fixed | 0.351 | 0.677 | 1.47 | 1.29 | 0.494 | 0.673 | 1.3 | 1.22 | 1.4
Q fixed | 1.06 | 1 | 0.907 | 1.06 | 0.987 | 1.61 | 1.18 | 1.09 | 0.757
R fixed | 1.04 | 2.08 | 2.47 | 1.7 | 1.33 | 0.677 | 0.846 | 0.994 | 1.12
V fixed | 1.53 | 0.678 | 0.556 | 0.63 | 0.446 | 0.378 | 0.552 | 0.535 | 0.549
W fixed | 1.99 | 0.782 | 0.72 | 1.09 | 0.706 | 0.84 | 0.663 | 0.864 | 0.852
Y fixed | 1.2 | 1.23 | 0.739 | 0.856 | 1.09 | 2.46 | 1.79 | 0.937 | 1.11
pThr fixed | 0.911 | 0.562 | 0.699 | 0.507 | 0.94 | 1.06 | 1.43 | 1.49 | 1.46
pTyr fixed | 0.769 | 0.428 | 0.728 | 0.82 | 2.18 | 1.52 | 1.41 | 1.53 | 1.82

AKT2, construct: Full length (from UniProt P31751)
relative phosphorylation
Conditions | at +1 | at +2 | at +3 | at +4 | at -1 | at -2 | at -3 | at -4 | at -5
A fixed | 0.789 | 1.29 | 1.06 | 0.923 | 0.951 | 0.988 | 0.523 | 1.15 | 1.09
D fixed | 0.487 | 0.644 | 0.589 | 0.615 | 0.663 | 0.303 | 0.213 | 0.571 | 0.519
E fixed | 0.448 | 0.575 | 0.584 | 0.595 | 0.457 | 0.304 | 0.231 | 0.647 | 0.536
F fixed | 1.78 | 0.673 | 0.86 | 0.681 | 0.795 | 0.446 | 0.288 | 0.7 | 0.931
G fixed | 0.854 | 1.36 | 1.27 | 1.23 | 1.16 | 0.615 | 0.351 | 1.19 | 1.05
H fixed | 0.947 | 1.76 | 1.39 | 1.15 | 1.28 | 0.822 | 0.546 | 1.03 | 1.04
I fixed | 1.14 | 0.734 | 0.617 | 0.687 | 0.43 | 0.438 | 0.274 | 0.661 | 0.711
K fixed | 1.02 | 1.33 | 1.79 | 1.96 | 1.36 | 2.83 | 1.91 | 1.98 | 1.67
L fixed | 1.11 | 0.872 | 0.859 | 0.736 | 0.772 | 0.784 | 0.29 | 0.797 | 0.838
M fixed | 1.35 | 0.8 | 0.735 | 0.814 | 0.984 | 0.488 | 0.291 | 0.888 | 0.872
N fixed | 1.1 | 1.23 | 0.919 | 1.06 | 1.67 | 0.547 | 0.304 | 0.914 | 0.807
P fixed | 0.722 | 0.925 | 1.02 | 1.64 | 1.12 | 0.385 | 0.34 | 0.972 | 1.02
Q fixed | 1.19 | 0.881 | 0.964 | 1.11 | 1.12 | 0.657 | 0.48 | 0.986 | 0.841
R fixed | 1.12 | 1.41 | 1.82 | 1.68 | 1.61 | 6.03 | 10.1 | 2.35 | 2.51
V fixed | 1.01 | 0.92 | 0.743 | 0.64 | 0.523 | 0.486 | 0.275 | 0.701 | 0.736
W fixed | 0.972 | 0.723 | 0.888 | 0.705 | 0.737 | 0.437 | 0.294 | 0.674 | 0.907
Y fixed | 0.971 | 0.878 | 0.887 | 0.765 | 1.38 | 0.441 | 0.311 | 0.803 | 0.927
pThr fixed | 0.772 | 1.1 | 0.808 | 0.932 | 0.441 | 0.482 | 0.346 | 0.752 | 0.776
pTyr fixed | 0.884 | 1.13 | 1.01 | 0.71 | 0.83 | 0.425 | 0.32 | 0.641 | 0.809

NUAK1, construct: Full length (from UniProt O60285)
relative phosphorylation
Conditions | at +1 | at +2 | at +3 | at +4 | at -1 | at -2 | at -3 | at -4 | at -5
A fixed | 0.726 | 0.749 | 0.566 | 0.716 | 1.14 | 1.47 | 0.552 | 1.04 | 0.835
D fixed | 0.449 | 0.564 | 0.844 | 0.464 | 0.661 | 0.734 | 0.4 | 0.474 | 0.611
E fixed | 0.545 | 0.312 | 0.418 | 0.359 | 0.488 | 0.532 | 0.397 | 0.867 | 0.436
F fixed | 2.2 | 0.695 | 1.33 | 1.13 | 0.475 | 0.586 | 0.472 | 0.91 | 1.12
G fixed | 0.839 | 1.15 | 0.566 | 0.81 | 1.27 | 0.931 | 0.454 | 0.673 | 0.609
H fixed | 0.927 | 1.14 | 1.56 | 1.08 | 0.951 | 0.821 | 1.12 | 0.995 | 0.772
I fixed | 0.559 | 1.16 | 0.888 | 1.76 | 0.261 | 0.557 | 0.322 | 0.792 | 2.04
K fixed | 1.19 | 1.09 | 1.22 | 1.01 | 2.27 | 0.955 | 2.72 | 1.16 | 1.2
L fixed | 0.666 | 1.19 | 0.907 | 2.45 | 0.613 | 0.489 | 0.395 | 1.12 | 2.08
M fixed | 1.1 | 1.17 | 1.08 | 1.69 | 0.937 | 0.837 | 0.598 | 1.56 | 1.33
N fixed | 1.2 | 1.52 | 1.53 | 0.786 | 1.58 | 4.11 | 0.691 | 0.776 | 0.631
P fixed | 0.483 | 0.753 | 0.434 | 0.765 | 1.63 | 0.53 | 0.665 | 0.929 | 0.727
Q fixed | 1.72 | 0.954 | 1 | 0.743 | 1.37 | 1.51 | 0.786 | 0.934 | 0.582
R fixed | 1.25 | 1.7 | 0.909 | 0.617 | 1.6 | 0.926 | 6.15 | 1.41 | 1.24
V fixed | 0.687 | 1.02 | 0.735 | 0.947 | 0.375 | 0.864 | 0.288 | 0.924 | 1.21
W fixed | 0.935 | 0.929 | 1.58 | 0.809 | 0.571 | 0.583 | 0.521 | 1.54 | 0.775
Y fixed | 1.51 | 0.889 | 1.42 | 0.869 | 0.822 | 0.554 | 0.468 | 0.891 | 0.802
pThr fixed | 0.684 | 0.497 | 0.396 | 0.362 | 0.291 | 0.397 | 0.352 | 0.518 | 0.373
pTyr fixed | 0.597 | 0.273 | 0.337 | 0.346 | 0.746 | 0.419 | 0.445 | 0.438 | 0.547
